Source: paper doi:10.1101/2025.06.20.660733

Columns and labels:
[1] = target: neuraminidase of A/Moscow/10/1999 (H3N2), recombinant head domain (influenza A virus A/Moscow/10/1999 (H3N2))
[2] = target: neuraminidase of A/cattle/Texas/56283/2024 (H5N1), recombinant head domain (influenza A virus A/cattle/Texas/56283/2024 (H5N1))

B1: HB420 (human IgG1) (antibody, V domains shown)
VH: EVQLVESGAEVKKPGSSVKVSCMASGGSFGSYGFSWVRQAPGQGLEWMGGIIPLFDTPNYAQKFQGRVTITADASTSTVYMELSSLRSEDTAVYYCARDSLPYGDQNYYYGMHVWGQGTTVTVSS
VL: QSALTQPASLSGSPGQSITISCSGSSSDIGDYNYVSWYQQHPGKAPKLIIYDVTNRPSGVSDRLSGSKSGTTASLTISGLQAEDEADYYCSSYGGNYNLVFGGGTKLTVL
With B1 the NA inhibition of recombinant NA by enzyme-linked lectin assay (ELLA), IC50 [1] was 0.19 µg/mL and the NA inhibition of recombinant NA by enzyme-linked lectin assay (ELLA), IC50 [2] was 50 µg/mL.
